Assay results taken from US20210269532A1.

Experiments:
[1] = molecular target: His-tagged human AXL extracellular domain (recombinant) (human) (UniProt P30530); assay: SPR classical sandwich assay (IBIS MX96): 100 nM analyte over AXL-His ECD held by surface-captured 22995; white cell = sandwiching
[2] = molecular target: His-tagged human AXL extracellular domain (recombinant) (human) (UniProt P30530); assay: SPR classical sandwich assay (IBIS MX96): 100 nM analyte over AXL-His ECD held by the surface-captured Control antibody (f2); white cell = sandwiching
[3] = molecular target: His-tagged human AXL extracellular domain (recombinant) (human) (UniProt P30530); assay: SPR classical sandwich assay (IBIS MX96): 100 nM analyte over AXL-His ECD held by surface-captured 23203-1; white cell = sandwiching
[4] = molecular target: His-tagged human AXL extracellular domain (recombinant) (human) (UniProt P30530); assay: SPR classical sandwich assay (IBIS MX96): 100 nM analyte over AXL-His ECD held by surface-captured 22883; white cell = sandwiching
[5] = molecular target: His-tagged human AXL extracellular domain (recombinant) (human) (UniProt P30530); assay: SPR classical sandwich assay (IBIS MX96): 100 nM analyte over AXL-His ECD held by surface-captured 10G5 analogue; white cell = sandwiching
[6] = molecular target: His-tagged human AXL extracellular domain (recombinant) (human) (UniProt P30530); assay: SPR classical sandwich assay (IBIS MX96): 100 nM analyte over AXL-His ECD held by surface-captured YW327.6S2 IgG1-LALA analogue; grey cell = blocked (self)
[7] = molecular target: cynomolgus AXL extracellular domain transiently expressed on CHO-S cells (cynomolgus); assay: flow cytometry, serial dilution on CHO-S cells transiently expressing cynomolgus AXL ECD, AF647 anti-human IgG secondary, GeoMean (RL1-H)
[8] = molecular target: human AXL extracellular domain transiently expressed on CHO-S cells (human) (UniProt P30530); assay: flow cytometry, serial dilution on CHO-S cells transiently expressing human AXL ECD, AF647 anti-human IgG secondary, GeoMean (RL1-H)
Sequence of human AXL extracellular domain transiently expressed on CHO-S cells (human) (P30530 26-451 limits assumed): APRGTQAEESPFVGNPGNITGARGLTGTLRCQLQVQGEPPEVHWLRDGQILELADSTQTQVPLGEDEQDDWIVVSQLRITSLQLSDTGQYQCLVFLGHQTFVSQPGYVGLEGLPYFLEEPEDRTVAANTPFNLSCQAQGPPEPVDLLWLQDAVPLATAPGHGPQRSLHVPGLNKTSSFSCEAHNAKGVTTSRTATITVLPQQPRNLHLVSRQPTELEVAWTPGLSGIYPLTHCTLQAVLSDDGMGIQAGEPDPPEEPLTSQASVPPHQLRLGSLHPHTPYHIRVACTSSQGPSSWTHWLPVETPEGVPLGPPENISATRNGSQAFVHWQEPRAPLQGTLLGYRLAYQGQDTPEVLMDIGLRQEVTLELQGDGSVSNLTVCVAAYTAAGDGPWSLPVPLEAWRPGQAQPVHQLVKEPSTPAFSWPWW

Sequence of YW327.6S2 IgG1-LALA analogue (Genentech) (antibody) (VH): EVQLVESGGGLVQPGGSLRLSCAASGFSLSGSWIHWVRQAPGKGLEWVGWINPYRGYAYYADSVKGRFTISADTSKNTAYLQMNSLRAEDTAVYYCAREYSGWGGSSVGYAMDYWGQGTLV
Sequence of YW327.6S2 IgG1-LALA analogue (Genentech) (antibody) (VL): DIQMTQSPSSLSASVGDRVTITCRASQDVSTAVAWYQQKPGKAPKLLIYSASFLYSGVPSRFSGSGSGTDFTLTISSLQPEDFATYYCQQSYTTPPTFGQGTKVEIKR
Sequence of His-tagged human AXL extracellular domain (recombinant) (human) (P30530 26-451): as the sequence (P30530 26-451 limits assumed) above

Row | normalized SPR sandwich response [1] | normalized SPR sandwich response [2] | normalized SPR sandwich response [3] | normalized SPR sandwich response [4] | normalized SPR sandwich response [5] | normalized SPR sandwich response [6] | EC50 (read off the curve) [7] | EC50 (read off the curve) [8] | Substance
1 | 1.1 | 1.3 | 1.1 | 3.9 | 1.2 | 0 | – | – | YW327.6S2 IgG1-LALA analogue (Genentech) (antibody)
2 | – | – | – | – | – | – | 8 ng/mL | 6 ng/mL | 10G5 IgG1-LALA analogue (BerGenBio) (antibody)
3 | – | – | – | – | – | – | 50 ng/mL | 60 ng/mL | Ax225 IgG1-LALA analogue (Chugai) (antibody)
